Data published in US20090053807 (published 2009).
Positions of bridges follow the written chain, without caps; N, C: chain ends. Non-standard residues stand in square brackets, D forms with d. No end group written: not given here. Hyp = O=C(O)[C@@H]1C[C@@H](O)CN1; Tic = O=C(O)[C@@H]1Cc2ccccc2CN1; Abu = CC[C@H](N)C(=O)O

Target: T1, human insulin receptor (HIR) (human, UniProt P06213)
Assay: competition

With GSLDESFYDWFER [S396] the Kd was greater than 20 µM.

Target: mIR (human, UniProt P06213)
Assay: FP vs FITC-RP9

Point of comparison: FHENFYDWFVQRVSKK [H2C (D117)], IC50 0.77 µM. Against it:
- GGTVWPGYEWLRNA [E8 (D120)] — higher, > 100 µM
- GSLDESFYDWFERQLGKK [S371 (RP9)] — 16-fold lower, 0.049 µM

Target: T1, human insulin receptor (HIR)
Assay: competition
Remark: another data set of the same source

Point of comparison: HPTSKEIYAKLLK [S122], Kd 93 µM. Against it:
- ESFYDWFE [S402] — not separable, > 20 µM
- AFYDWFA [S181] — not separable, > 20 µM
- [dF][dH][dE][dN][dF][dY][dD][dW][dF][dV][dR][dQ][dV][dS][dK][dK] [S114] — 11-fold lower, 8.3 µM
- FYDWF [S165] — not separable, > 20 µM
- AHENFYDWFVRQVSKK [S113] — 16-fold lower, 5.9 µM
- ESFYDWF [S403] — not separable, > 20 µM
- AFYEWFAKK [S214] — not separable, > 20 µM
- AFYDWF [S182] — not separable, > 20 µM
- [Abu]CLEE[dW]GASL[Tic]QCSG (disulfide 2-13 (inferred)) [S266] — not separable, > 20 µM
- FYDWFKK [S166] — not separable, > 20 µM
- APVSTEELRWGALLFGQWAG [S283] — not separable, > 20 µM
- WFGYAWLS [S317] — not separable, > 20 µM
- GSLDESFYDWFE [S397] — not separable, > 20 µM
- FHENFADWFVRQVSKK [S220] — not separable, > 20 µM
- FHENAYDWFVRQVSKK [S219] — not separable, > 20 µM
- ESFYDWFER [S401] — not separable, > 20 µM
- DPFYQGLWEWLRESGEE [S289] — not separable, > 20 µM
- FYDWFA [S183] — not separable, > 20 µM
- SDGEYNAIELLS [S118] — 39-fold lower, 2.4 µM
- PLRESRNFYDWFVQQLE [S366] — 25-fold lower, 3.7 µM
- GSLDESFYDWFER [S396] — not separable, > 20 µM
- FHENFYDAFVRQVSKK [S222] — not separable, > 20 µM
- ALEEEWAWVQVRSIRSGLPL [S284] — not separable, > 20 µM
- HLSVGEELSWWVALLGQWAR [S282] — not separable, > 20 µM
- AFYGWFAKK [S215] — not separable, > 20 µM
- RD[Hyp]FYDWEDD[dI] [S268] — 210-fold lower, 0.45 µM
- Ac-FYDWF [S184] — not separable, > 20 µM
- AFYDWFAK [S180] — not separable, > 20 µM
- FHENFYDWAVRQVSKK [S223] — not separable, > 20 µM
- AFYDWFAKK [S167] — not separable, > 20 µM
- FHENFYDWFVAQVSKK [S108] — 12-fold lower, 7.5 µM
- GFREGQRWYWFVAQVT [S278] — not separable, > 20 µM
- GSLDESFYDWF [S398] — not separable, > 20 µM
- AFYKWFAKK [S216] — not separable, > 20 µM

Target: T1, human insulin receptor (HIR)
Assay: competition
Remark: another data set of the same source

GSLDESFYDWFER [S396] gave a Kd greater than 20 µM.
